These are literature values, as cited in publication doi:10.64898/2025.12.23.696170.

A word on the Ki: it is a dissociation constant, usually derived from enzyme kinetics or from competition with a known ligand.

The target in one data set is ATR2 (Homo sapiens) (UniProt P50052).
The target of another data set is ATR1 (Homo sapiens) (UniProt P30556).
Chain of UniProt P30556 (P30556 whole entry): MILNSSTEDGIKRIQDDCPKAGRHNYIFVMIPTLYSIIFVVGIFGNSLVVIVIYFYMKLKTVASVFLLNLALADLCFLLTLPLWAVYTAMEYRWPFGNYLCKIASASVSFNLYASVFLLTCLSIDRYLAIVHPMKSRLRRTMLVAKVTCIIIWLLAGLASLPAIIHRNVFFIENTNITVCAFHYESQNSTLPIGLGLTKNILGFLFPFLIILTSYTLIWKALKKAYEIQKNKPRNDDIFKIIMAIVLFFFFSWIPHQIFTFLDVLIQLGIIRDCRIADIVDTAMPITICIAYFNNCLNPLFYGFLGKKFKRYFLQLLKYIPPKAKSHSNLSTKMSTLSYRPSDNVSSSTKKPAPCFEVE

Chain of UniProt P50052 (P50052 whole entry): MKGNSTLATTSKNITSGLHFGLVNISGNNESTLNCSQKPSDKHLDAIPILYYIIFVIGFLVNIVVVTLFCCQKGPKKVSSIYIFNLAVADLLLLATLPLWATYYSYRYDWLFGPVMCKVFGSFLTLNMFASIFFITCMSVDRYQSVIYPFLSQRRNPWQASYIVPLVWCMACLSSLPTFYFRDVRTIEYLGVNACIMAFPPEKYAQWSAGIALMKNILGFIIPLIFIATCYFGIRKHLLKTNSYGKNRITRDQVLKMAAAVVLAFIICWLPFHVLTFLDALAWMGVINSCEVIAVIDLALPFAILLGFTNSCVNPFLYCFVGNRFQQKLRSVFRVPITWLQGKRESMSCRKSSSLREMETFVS

Consider Angiotensin II (from UniProt P01019), for which the Ki with ATR2 (Homo sapiens) was 0.3 nM; in the data set with ATR1 (Homo sapiens), 0.2 nM.
